Experimental data from the supplement of paper PMC9112550, “Optimization of the antimicrobial peptide Bac7 by deep mutational scanning” (BMC Biology, 2022).

system: Escherichia coli TOP10; experiment: shrunken log2 fold change of peptide-encoding DNA abundance (4.5 h post-induction vs induction); higher = less antimicrobial activity (less host growth inhibition); conditions: time post-induction: 4.5 h; library: site-saturation at positions 5, 18, 19, 20
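Also: peptides expressed intracellularly from a pBAD plasmid library in pooled LB shake-flask culture, induced with 0.3% L-arabinose, DNA abundance read by NGS, three biological replicates, DESeq2 with apeglm shrinkage.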

Row | Sequence | shrunken log2 fold change
1 | RRIRDRPPRLPRPRPRPTITPRP | 0.0537
2 | RRIRDRPPRLPRPRPRPTKAPRP | 0.000414
3 | RRIRDRPPRLPRPRPRPTKFPRP | 0.138
4 | RRIRDRPPRLPRPRPRPTLHPRP | 0.605
5 | RRIRDRPPRLPRPRPRPTLWPRP | 2.36
6 | RRIRDRPPRLPRPRPRPTMLPRP | 0.138
7 | RRIRDRPPRLPRPRPRPTMNPRP | 0.116
8 | RRIRDRPPRLPRPRPRPTNLPRP | -0.182
9 | RRIRDRPPRLPRPRPRPTNYPRP | -0.48
10 | RRIRDRPPRLPRPRPRPTPRPRP | 0.792
11 | RRIRDRPPRLPRPRPRPTQDPRP | 1.27
12 | RRIRDRPPRLPRPRPRPTRIPRP | 0.0348
13 | RRIRDRPPRLPRPRPRPTRVPRP | 0.0497
14 | RRIRDRPPRLPRPRPRPTSVPRP | -0.0218
15 | RRIRDRPPRLPRPRPRPTTCPRP | 0.463
16 | RRIRDRPPRLPRPRPRPTTFPRP | 0.0301
17 | RRIRDRPPRLPRPRPRPTTRPRP | 0.542
18 | RRIRDRPPRLPRPRPRPTTYPRP | -0.0974
19 | RRIRDRPPRLPRPRPRPTVSPRP | 0.853
20 | RRIRDRPPRLPRPRPRPTWQPRP | 0.542
21 | RRIRDRPPRLPRPRPRPTYVPRP | -0.0733
22 | RRIRDRPPRLPRPRPRPVAQPRP | 0.616
23 | RRIRDRPPRLPRPRPRPVARPRP | 0.56
24 | RRIRDRPPRLPRPRPRPVAVPRP | 0.453
25 | RRIRDRPPRLPRPRPRPVCGPRP | 0.979

Row | Sequence | shrunken log2 fold change
26 | RRIRDRPPRLPRPRPRPVCKPRP | -0.0246
27 | RRIRDRPPRLPRPRPRPVCQPRP | 0.0526
28 | RRIRDRPPRLPRPRPRPVDHPRP | -0.173
29 | RRIRDRPPRLPRPRPRPVEHPRP | 0.115
30 | RRIRDRPPRLPRPRPRPVFDPRP | 0.291
31 | RRIRDRPPRLPRPRPRPVFIPRP | -0.476
32 | RRIRDRPPRLPRPRPRPVGCPRP | 0.229
33 | RRIRDRPPRLPRPRPRPVGDPRP | 0.47
34 | RRIRDRPPRLPRPRPRPVGKPRP | 0.0278
35 | RRIRDRPPRLPRPRPRPVGQPRP | 0.435
36 | RRIRDRPPRLPRPRPRPVIMPRP | -0.381
37 | RRIRDRPPRLPRPRPRPVLCPRP | 0.28
38 | RRIRDRPPRLPRPRPRPVPRPRP | 0.186
39 | RRIRDRPPRLPRPRPRPVQEPRP | -0.0575
40 | RRIRDRPPRLPRPRPRPVRCPRP | 0.339
41 | RRIRDRPPRLPRPRPRPVRPPRP | 1.07
42 | RRIRDRPPRLPRPRPRPVSDPRP | -0.145
43 | RRIRDRPPRLPRPRPRPVTLPRP | -0.283
44 | RRIRDRPPRLPRPRPRPVTMPRP | -0.228
45 | RRIRDRPPRLPRPRPRPWANPRP | 0.0419
46 | RRIRDRPPRLPRPRPRPWCSPRP | -0.348
47 | RRIRDRPPRLPRPRPRPWCTPRP | 0.107
48 | RRIRDRPPRLPRPRPRPWETPRP | 0.192
49 | RRIRDRPPRLPRPRPRPWFYPRP | -0.0139
50 | RRIRDRPPRLPRPRPRPWGRPRP | 0.258

Row | Sequence | shrunken log2 fold change
51 | RRIRDRPPRLPRPRPRPWGVPRP | 0.0789
52 | RRIRDRPPRLPRPRPRPWHQPRP | -0.0511
53 | RRIRDRPPRLPRPRPRPWIWPRP | 0.188
54 | RRIRDRPPRLPRPRPRPWLWPRP | 0.0548
55 | RRIRDRPPRLPRPRPRPWMIPRP | -0.124
56 | RRIRDRPPRLPRPRPRPWNNPRP | -0.0248
57 | RRIRDRPPRLPRPRPRPWNYPRP | -0.0121
58 | RRIRDRPPRLPRPRPRPWPPPRP | 0.32
59 | RRIRDRPPRLPRPRPRPWPTPRP | 0.104
60 | RRIRDRPPRLPRPRPRPWSCPRP | -0.188
61 | RRIRDRPPRLPRPRPRPWSKPRP | -0.203
62 | RRIRDRPPRLPRPRPRPWWAPRP | 0.61
63 | RRIRDRPPRLPRPRPRPWYFPRP | -0.327
64 | RRIRDRPPRLPRPRPRPYDNPRP | -0.307
65 | RRIRDRPPRLPRPRPRPYDSPRP | -0.0305
66 | RRIRDRPPRLPRPRPRPYFMPRP | -0.735
67 | RRIRDRPPRLPRPRPRPYGEPRP | -0.31
68 | RRIRDRPPRLPRPRPRPYHLPRP | -0.0628
69 | RRIRDRPPRLPRPRPRPYIAPRP | -0.652
70 | RRIRDRPPRLPRPRPRPYIFPRP | 3.58
71 | RRIRDRPPRLPRPRPRPYKKPRP | 0.00426
72 | RRIRDRPPRLPRPRPRPYKTPRP | -0.0411
73 | RRIRDRPPRLPRPRPRPYLRPRP | -0.0137
74 | RRIRDRPPRLPRPRPRPYMDPRP | -0.393
75 | RRIRDRPPRLPRPRPRPYMHPRP | -0.275
